Measured values published in publication PMC11417369, “DNA sequence and chromatin differentiate sequence-specific transcription factor binding in the human malaria parasite Plasmodium falciparum”.
Positions count from the first letter of the chain named.

T1: PF3D7_0420300 D1 (Plasmodium falciparum, UniProt Q8I1N6 1956-2015)
T1 sequence: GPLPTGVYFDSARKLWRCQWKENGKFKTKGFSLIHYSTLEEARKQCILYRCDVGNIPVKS

T2: SIP2 D1 (Plasmodium falciparum, UniProt C6KSN9 177-235)
T2 sequence: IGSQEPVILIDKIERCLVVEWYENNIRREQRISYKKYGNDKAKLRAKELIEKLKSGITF

B1: CACACA_site710 (dsDNA)
DNA 1: AAAAAAAGATTATACACACACATATATAAACCTACA
DNA 2: TGTAGGTTTATATATGTGTGTGTATAATCTTTTTTT
B2: CACACA_site8978 (dsDNA)
DNA 1: TGAGTCTTTTACATTGCACACACATTTCTTTCCTTT
DNA 2: AAAGGAAAGAAATGTGTGTGCAATGTAAAAGACTCA
B3: CACACA_site5102 (dsDNA)
DNA 1: GAGAAAAATAAATACACACACATAAATAAATACATA
DNA 2: TATGTATTTATTTATGTGTGTGTATTTATTTTTCTC
B4: CACACA_site6342 (dsDNA)
DNA 1: AAAAAAAACAGACACACACACAAATATTTATATATC
DNA 2: GATATATAAATATTTGTGTGTGTGTCTGTTTTTTTT
B5: CACACA_site494 (dsDNA)
DNA 1: CATACATAGAAACACACACACACACCCACCCACAAA
DNA 2: TTTGTGGGTGGGTGTGTGTGTGTGTTTCTATGTATG
B6: GTGCAC_site9916 (dsDNA)
DNA 1: TATTTCTTTTGGTTGGTGCATAAAATAATACAATAT
DNA 2: ATATTGTATTATTTTATGCACCAACCAAAAGAAATA
B7: CACACA_site6364 (dsDNA)
DNA 1: ATAATCCTTAGACACACACACACACGAATAAATAAA
DNA 2: TTTATTTATTCGTGTGTGTGTGTGTCTAAGGATTAT
B8: CACACA_site9118 (dsDNA)
DNA 1: AAAAAAAACGCACATACACACACACCCATATATATA
DNA 2: TATATATATGGGTGTGTGTGTATGTGCGTTTTTTTT
B9: CACACA_site757 (dsDNA)
DNA 1: AAACTTGACAGACACACACACACATATATAAAAAAA
DNA 2: TTTTTTTATATATGTGTGTGTGTGTCTGTCAAGTTT
B10: CACACA_site2906 (dsDNA)
DNA 1: AATATAAATAAACACACACACATATATATATATATT
DNA 2: AATATATATATATATGTGTGTGTGTTTATTTATATT
B11: CACACA_site5427 (dsDNA)
DNA 1: TAATTATGCGGACACACACACACACCCAACTAAAAA
DNA 2: TTTTTAGTTGGGTGTGTGTGTGTGTCCGCATAATTA
B12: CACACA_site2569 (dsDNA)
DNA 1: B11 DNA 1 with G10A
DNA 2: B11 DNA 2 with C27T
B13: CACACA_site8411 (dsDNA)
DNA 1: AAAAAAAAAAAACACACACACACACCGACAAAATAT
DNA 2: ATATTTTGTCGGTGTGTGTGTGTGTTTTTTTTTTTT
B14: CACACA_site6309 (dsDNA)
DNA 1: ACATCAAGCAGACACACACACACACGCACACGCACA
DNA 2: TGTGCGTGTGCGTGTGTGTGTGTGTCTGCTTGATGT
B15: CACACA_site5776 (dsDNA)
DNA 1: ATTATAAATACACGCACACACACTTATATATATATA
DNA 2: TATATATATATAAGTGTGTGTGCGTGTATTTATAAT
B16: CACACA_site4903 (dsDNA)
DNA 1: AAAAACCATTGGCACACACACATAATATATAATATA
DNA 2: TATATTATATATTATGTGTGTGTGCCAATGGTTTTT
B17: CACACA_site2053 (dsDNA)
DNA 1: AAATTTATTATGAACATACACACAAAAAAAAAAAGT
DNA 2: ACTTTTTTTTTTTGTGTGTATGTTCATAATAAATTT
B18: CACACA_site7188 (dsDNA)
DNA 1: GTGCATAAATCATACACACACACATATATAAATATA
DNA 2: TATATTTATATATGTGTGTGTGTATGATTTATGCAC
B19: CACACA_site8724 (dsDNA)
DNA 1: AACACATACATATATACACACACAAAATAATAAAAT
DNA 2: ATTTTATTATTTTGTGTGTGTATATATGTATGTGTT
B20: CACACA_site748 (dsDNA)
DNA 1: ATTTTTTTTTTTTCCTTACACACATATTTCATTTTA
DNA 2: TAAAATGAAATATGTGTGTAAGGAAAAAAAAAAAAT
B21: CACACA_site5271 (dsDNA)
DNA 1: TATAAATACAGATACACACACACACCGATATATATA
DNA 2: TATATATATCGGTGTGTGTGTGTATCTGTATTTATA
B22: CACACA_site8938 (dsDNA)
DNA 1: TAATTAAATACATTAACACACACACTAATATATACA
DNA 2: TGTATATATTAGTGTGTGTGTTAATGTATTTAATTA
B23: CACACA_site8200 (dsDNA)
DNA 1: AAACTTAATATCGGTACACACACAAGATAAGAATTA
DNA 2: TAATTCTTATCTTGTGTGTGTACCGATATTAAGTTT
B24: CACACA_site399 (dsDNA)
DNA 1: AACAACCAAAGGCACACACACAAAAAAAAAAATATA
DNA 2: TATATTTTTTTTTTTGTGTGTGTGCCTTTGGTTGTT
B25: CACACA_site6531 (dsDNA)
DNA 1: AATAAATTTAGACACACACACACATATAAATAAATA
DNA 2: TATTTATTTATATGTGTGTGTGTGTCTAAATTTATT
B26: CACACA_site7644 (dsDNA)
DNA 1: AAAAAATACAGACACACACACACACGCATATAAATA
DNA 2: TATTTATATGCGTGTGTGTGTGTGTCTGTATTTTTT
B27: CACACA_site370 (dsDNA)
DNA 1: ATCAAGCACCAACACACACACACACCCCCACCCACA
DNA 2: TGTGGGTGGGGGTGTGTGTGTGTGTTGGTGCTTGAT
B28: CACACA_site4117 (dsDNA)
DNA 1: TATATATATATAGACACACACACACCCATATATATA
DNA 2: TATATATATGGGTGTGTGTGTGTCTATATATATATA
B29: CACACA_site5111 (dsDNA)
DNA 1: TATTTATAAATTTACACACACACATGGGAACATAAA
DNA 2: TTTATGTTCCCATGTGTGTGTGTAAATTTATAAATA
B30: CACACA_site466 (dsDNA)
DNA 1: CAAAAAAAATAAAACACACACACAAAAAAATAAAAA
DNA 2: TTTTTATTTTTTTGTGTGTGTGTTTTATTTTTTTTG
B31: CACACA_site7431 (dsDNA)
DNA 1: CTTGTCATTTTGCACACACACATGTATAGGTTATTA
DNA 2: TAATAACCTATACATGTGTGTGTGCAAAATGACAAG
B32: CACACA_site6496 (dsDNA)
DNA 1: TATTAAACTTGACACACACACACACGCATATATAAA
DNA 2: TTTATATATGCGTGTGTGTGTGTGTCAAGTTTAATA
B33: CACACA_site8723 (dsDNA)
DNA 1: TATTCCCCCCAACACACACACACACCGACATACCAC
DNA 2: GTGGTATGTCGGTGTGTGTGTGTGTTGGGGGGAATA
B34: CACACA_site7364 (dsDNA)
DNA 1: AAAAAAAAAAAAAACACACACACACGCATACACATA
DNA 2: TATGTGTATGCGTGTGTGTGTGTTTTTTTTTTTTTT
B35: CACACA_site6794 (dsDNA)
DNA 1: B34 DNA 1 with C33A, T35A, A36T
DNA 2: B34 DNA 2 with T1A, A2T, G4T
B36: CACACA_site1251 (dsDNA)
DNA 1: TACAATTTAAAACACACACACAATAATACATATATA
DNA 2: TATATATGTATTATTGTGTGTGTGTTTTAAATTGTA
B37: CACACA_site1104 (dsDNA)
DNA 1: AAAAAAAAAAAAAACACACACACAAAAAAAAATATA
DNA 2: TATATTTTTTTTTGTGTGTGTGTTTTTTTTTTTTTT
B38: CACACA_site7579 (dsDNA)
DNA 1: TATACACATATATACACACACATATATAAATAAATA
DNA 2: TATTTATTTATATATGTGTGTGTATATATGTGTATA
B39: CACACA_site7142 (dsDNA)
DNA 1: TAGTAAAAGATATACACACACCAAAAAATATAATTA
DNA 2: TAATTATATTTTTTGGTGTGTGTATATCTTTTACTA
B40: GTGCAC_site10768 (dsDNA)
DNA 1: TATATATATCTTTTGGTGCATATTTCGAATATATGT
DNA 2: ACATATATTCGAAATATGCACCAAAAGATATATATA

How the values were obtained:
[1] = target: T1, PF3D7_0420300 D1; assay: gcPBM; about 25 ug protein; PBS, 1% milk, 0.2 mg/ml BSA, salmon testes DNA, 0.03% Triton X-100; settings: tags: N-terminal GST (pGEX-4T-1), kept; label: surface-attached array probe
[2] = target: T2, SIP2 D1; assay: as above; settings: tags: N-terminal GST (pGEX-4T-1), kept; label: surface-attached array probe

Row | Binder | binding signal [1] | binding signal [2]
1 | B1 | 10.1 ln median PBM intensity, better of two orientations | –
2 | B2 | 9.97 ln median PBM intensity, better of two orientations | –
3 | B3 | 10.2 ln median PBM intensity, better of two orientations | –
4 | B4 | 10.2 ln median PBM intensity, better of two orientations | –
5 | B5 | 10.4 ln median PBM intensity, better of two orientations | –
6 | B6 | – | 10.2 ln median PBM intensity, better of two orientations
7 | B7 | 10.3 ln median PBM intensity, better of two orientations | –
8 | B8 | 10 ln median PBM intensity, better of two orientations | –
9 | B9 | 10.1 ln median PBM intensity, better of two orientations | –
10 | B10 | 10.1 ln median PBM intensity, better of two orientations | –
11 | B11 | 10.1 ln median PBM intensity, better of two orientations | –
12 | B12 | 10.1 ln median PBM intensity, better of two orientations | –
13 | B13 | 10.2 ln median PBM intensity, better of two orientations | –
14 | B14 | 10.4 ln median PBM intensity, better of two orientations | –
15 | B15 | 9.96 ln median PBM intensity, better of two orientations | –
16 | B16 | 10 ln median PBM intensity, better of two orientations | –
17 | B17 | 9.98 ln median PBM intensity, better of two orientations | –
18 | B18 | 9.95 ln median PBM intensity, better of two orientations | –
19 | B19 | 10.1 ln median PBM intensity, better of two orientations | –
20 | B20 | 9.99 ln median PBM intensity, better of two orientations | –

Row | Binder | binding signal [1] | binding signal [2]
21 | B21 | 10.2 ln median PBM intensity, better of two orientations | –
22 | B22 | 10 ln median PBM intensity, better of two orientations | –
23 | B23 | 9.96 ln median PBM intensity, better of two orientations | –
24 | B24 | 10 ln median PBM intensity, better of two orientations | –
25 | B25 | 10.2 ln median PBM intensity, better of two orientations | –
26 | B26 | 10.2 ln median PBM intensity, better of two orientations | –
27 | B27 | 10.8 ln median PBM intensity, better of two orientations | –
28 | B28 | 10 ln median PBM intensity, better of two orientations | –
29 | B29 | 10.1 ln median PBM intensity, better of two orientations | –
30 | B30 | 10.2 ln median PBM intensity, better of two orientations | –
31 | B31 | 10.1 ln median PBM intensity, better of two orientations | –
32 | B32 | 10.3 ln median PBM intensity, better of two orientations | –
33 | B33 | 10.8 ln median PBM intensity, better of two orientations | –
34 | B34 | 10.2 ln median PBM intensity, better of two orientations | –
35 | B35 | 10.1 ln median PBM intensity, better of two orientations | –
36 | B36 | 10.1 ln median PBM intensity, better of two orientations | –
37 | B37 | 10.1 ln median PBM intensity, better of two orientations | –
38 | B38 | 9.98 ln median PBM intensity, better of two orientations | –
39 | B39 | 10 ln median PBM intensity, better of two orientations | –
40 | B40 | – | 10.2 ln median PBM intensity, better of two orientations
